Measurements as given in article PMC11997217, “Inactivation of GH3.5 by COP1-mediated K63-linked ubiquitination promotes seedling hypocotyl elongation” (Nature Communications, 2025).

Target: T1, MBP-COP1 (Arabidopsis, UniProt P43254 1-675)
T1 construct: CONSTITUTIVELY PHOTOMORPHOGENIC 1 (COP1), Arabidopsis; full-length COP1 fused with MBP-tag; The plasmid for full-length MBP-COP1 is not described in the methods; only its expression and purification are; also called CONSTITUTIVELY PHOTOMORPHOGENIC 1; full-length COP1; source: E. coli BL21, purified (amylose resin); not shown: MBP, N-terminal, kept
T1 sequence (looked up): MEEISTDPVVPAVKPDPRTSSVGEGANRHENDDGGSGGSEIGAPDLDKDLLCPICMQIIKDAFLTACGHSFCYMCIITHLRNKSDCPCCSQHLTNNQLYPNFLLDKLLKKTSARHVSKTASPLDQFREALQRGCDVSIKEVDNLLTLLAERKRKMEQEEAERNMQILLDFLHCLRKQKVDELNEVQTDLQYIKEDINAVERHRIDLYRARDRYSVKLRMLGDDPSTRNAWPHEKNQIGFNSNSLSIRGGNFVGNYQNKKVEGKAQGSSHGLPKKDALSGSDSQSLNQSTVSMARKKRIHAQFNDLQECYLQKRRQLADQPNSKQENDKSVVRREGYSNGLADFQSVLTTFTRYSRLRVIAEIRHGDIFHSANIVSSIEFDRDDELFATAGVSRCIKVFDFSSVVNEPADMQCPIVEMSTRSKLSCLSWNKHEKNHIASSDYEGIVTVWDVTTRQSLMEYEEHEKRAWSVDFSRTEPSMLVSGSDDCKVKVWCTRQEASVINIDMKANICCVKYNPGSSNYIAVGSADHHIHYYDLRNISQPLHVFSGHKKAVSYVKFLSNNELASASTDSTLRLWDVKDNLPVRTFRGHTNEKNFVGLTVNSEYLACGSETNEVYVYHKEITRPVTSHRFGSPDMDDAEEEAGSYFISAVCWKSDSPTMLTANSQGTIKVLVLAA
Experiment: pull-down; 1 μg GST-GH3.5 and 1 μg MBP-tagged COP1 in 25 mM Tris-HCl pH 7.5, 100 mM NaCl, 0.25% NP40, 4 °C; captured on amylose resin; washed with 500 mM NaCl, 0.5% NP40; blots with anti-MBP and anti-GST
Conditions: both partners purified

binding result: binds
B1: GST-GH3.5 (enzyme, Arabidopsis, UniProt O81829 1-612, looked up)
chain: MPEAPKKESLEVFDLTLDQKNKQKLQLIEELTSNADQVQRQVLEEILTRNADVEYLRRHDLNGRTDRETFKNIMPVITYEDIEPEINRIANGDKSPILSSKPISEFLTSSGTSGGERKLMPTIEEELDRRSLLYSLLMPVMSQFVPGLENGKGMYFLFIKSESKTPGGLPARPVLTSYYKSSHFKERPYDPYTNYTSPNETILCSDSYQSMYSQMLCGLCQHQEVLRVGAVFASGFIRAIKFLEKHWIELVRDIRTGTLSSLITDPSVREAVAKILKPSPKLADFVEFECKKSSWQGIITRLWPNTKYVDVIVTGTMSQYIPTLDYYSNGLPLVCTMYASSECYFGVNLRPLCKPSEVSYTLIPSMAYFEFLPVHRNNGVTNSINLPKALTEKEQQELVDLVDVKLGQEYELVVTTYAGLCRYRVGDLLRVTGFKNKAPQFSFICRKNVVLSIDSDKTDEVELQNAVKNAVTHLVPFDASLSEYTSYADTSSIPGHYVLFWELCLDGNTPIPPSVFEDCCLAVEESFNTVYRQGRVSDKSIGPLEIKIVEPGTFDKLMDYAISLGASINQYKTPRCVKFAPIIELLNSRVVDSYFSPKCPKWVPGHKQWGSN
notes: the GH3.5 CDS inserted into BamHI/EcoRI of pGEX4T-1; also called GRETCHEN HAGEN 3.5; source: E. coli BL21, purified (Glutathione Sepharose 4B); not shown: GST, N-terminal, kept
